Bridges are numbered along the chain shown (N, C = ends). Where no end group is shown, it is not given here. 99mTc‑Chelate II = tetraamine chelate labelled with 99mTc, on the N-terminus

Data on 4 molecules can be found in patent US8304388B2, “Imaging agents” (GE Healthcare Limited, priority 2006, dated 2012).

The target of experiment [1] is collagen type I (Homo sapiens, UniProt P02452+P08123). The experiment is described as follows: In vitro binding to collagen type I coated plate. The procedure:
A Maxisorp plate was incubated overnight at 4° C. with 50 μL or 100 μL 0.1 mg/mL collagen type I. All solutions were removed from the wells using a pipette. Wells were washed twice with 200 μL PBS, and then incubated with 150 μL PBS containing 0.1% BSA for 30 minutes at room temperature. Wells were washed five times with 200 μL PBS, and then 90 μL PBS was added to each well. 10 μL of neat (and two-fold serially diluted in PBS) Imaging Agent 1 was added to the wells in quadruplicate. The plate was sealed and incubated for 1 hour at 37° C.
The wells were washed seven times with ice-cold PBS (200 μL); and then the wells were transferred to a glass vial and counted (measured) for ^99mTc-activity using a Wallac counter for a 60 s count for each sample.
FIG. 1 illustrates binding of Imaging Agent 1 to collagen type I coated wells from one experiment.

The target in experiment [2] is collagen type I. The experiment is described as follows: saturation binding of 99mTc-labelled peptide to collagen type I coated Maxisorp wells, one-site hyperbola fit.

collagen type I (Homo sapiens, UniProt P02452+P08123), sequence (P02452 162-1218 limits assumed): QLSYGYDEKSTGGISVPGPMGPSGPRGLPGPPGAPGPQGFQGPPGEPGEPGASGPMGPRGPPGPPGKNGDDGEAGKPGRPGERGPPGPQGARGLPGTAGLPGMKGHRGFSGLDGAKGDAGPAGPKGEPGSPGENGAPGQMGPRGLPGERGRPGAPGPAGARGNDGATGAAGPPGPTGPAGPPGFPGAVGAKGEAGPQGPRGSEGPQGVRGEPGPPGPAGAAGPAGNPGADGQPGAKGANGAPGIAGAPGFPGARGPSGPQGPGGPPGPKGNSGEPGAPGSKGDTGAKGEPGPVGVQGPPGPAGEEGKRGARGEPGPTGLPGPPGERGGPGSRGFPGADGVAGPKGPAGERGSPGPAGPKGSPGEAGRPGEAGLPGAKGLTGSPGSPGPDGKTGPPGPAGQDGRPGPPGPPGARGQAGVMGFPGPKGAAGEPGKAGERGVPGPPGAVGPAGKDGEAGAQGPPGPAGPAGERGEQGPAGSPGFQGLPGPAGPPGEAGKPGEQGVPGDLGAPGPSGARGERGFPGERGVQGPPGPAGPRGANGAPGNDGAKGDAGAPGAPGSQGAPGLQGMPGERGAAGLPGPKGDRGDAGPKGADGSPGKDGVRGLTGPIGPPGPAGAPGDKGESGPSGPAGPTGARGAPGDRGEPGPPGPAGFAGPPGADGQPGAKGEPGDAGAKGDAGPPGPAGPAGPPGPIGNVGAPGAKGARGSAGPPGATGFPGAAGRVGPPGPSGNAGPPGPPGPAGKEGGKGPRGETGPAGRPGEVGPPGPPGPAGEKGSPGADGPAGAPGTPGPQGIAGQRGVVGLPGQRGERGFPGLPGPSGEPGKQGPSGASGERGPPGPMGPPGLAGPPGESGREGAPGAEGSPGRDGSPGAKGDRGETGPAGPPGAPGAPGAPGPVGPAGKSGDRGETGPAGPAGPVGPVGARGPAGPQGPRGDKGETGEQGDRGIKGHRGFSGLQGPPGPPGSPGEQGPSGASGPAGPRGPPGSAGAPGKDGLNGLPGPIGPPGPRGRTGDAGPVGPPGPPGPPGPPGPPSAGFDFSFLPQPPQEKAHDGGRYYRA
collagen type I (Homo sapiens, UniProt P02452+P08123), sequence (P08123 80-1119 limits assumed): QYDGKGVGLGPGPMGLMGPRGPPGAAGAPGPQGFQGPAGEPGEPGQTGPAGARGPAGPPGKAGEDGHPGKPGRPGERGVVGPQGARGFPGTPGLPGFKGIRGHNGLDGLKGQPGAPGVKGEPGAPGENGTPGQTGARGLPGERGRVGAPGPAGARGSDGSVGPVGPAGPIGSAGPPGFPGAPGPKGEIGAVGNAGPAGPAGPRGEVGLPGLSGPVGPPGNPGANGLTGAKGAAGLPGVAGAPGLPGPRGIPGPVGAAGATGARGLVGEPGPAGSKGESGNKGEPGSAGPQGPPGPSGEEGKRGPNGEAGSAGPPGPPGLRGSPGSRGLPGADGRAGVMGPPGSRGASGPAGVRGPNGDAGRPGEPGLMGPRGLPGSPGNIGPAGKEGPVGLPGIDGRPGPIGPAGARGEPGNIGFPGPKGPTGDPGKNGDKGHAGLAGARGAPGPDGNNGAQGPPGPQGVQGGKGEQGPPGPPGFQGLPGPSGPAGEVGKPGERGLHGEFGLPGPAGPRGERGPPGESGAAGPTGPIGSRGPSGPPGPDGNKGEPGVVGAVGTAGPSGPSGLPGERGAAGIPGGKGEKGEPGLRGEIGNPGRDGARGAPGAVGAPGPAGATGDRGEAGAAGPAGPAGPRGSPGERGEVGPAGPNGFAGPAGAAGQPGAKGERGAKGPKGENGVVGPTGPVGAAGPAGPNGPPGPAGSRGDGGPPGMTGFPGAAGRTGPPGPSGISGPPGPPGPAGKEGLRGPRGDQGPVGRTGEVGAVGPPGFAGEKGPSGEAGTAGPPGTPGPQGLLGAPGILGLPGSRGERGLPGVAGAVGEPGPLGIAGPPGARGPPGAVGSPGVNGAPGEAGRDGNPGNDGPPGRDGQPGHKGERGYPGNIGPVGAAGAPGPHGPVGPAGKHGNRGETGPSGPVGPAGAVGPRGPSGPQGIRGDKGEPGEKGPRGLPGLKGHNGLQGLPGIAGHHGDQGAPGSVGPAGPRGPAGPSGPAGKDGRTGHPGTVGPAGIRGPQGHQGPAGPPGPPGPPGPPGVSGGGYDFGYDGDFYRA

On to “^123I-labelled Ac-CKELNVLYTC-NH2 (disulfide 1-10; also: 123I-labelled) [Imaging Agent 36]”, for which, in the experiment with collagen type I [1], the “binding to collagen in vitro” value is listed as “bind with high affinity to collagen in vitro”.
Regarding “^123I-labelled Ac-KELNLVYT-NH2 (also: 123I-labelled) [Imaging Agent 29]”, the “binding to collagen in vitro” value with collagen type I [1] was “bind with high affinity to collagen in vitro”.
On the same count and under the same terms, to “^123I-labelled KELNVLYT-NH2 (also: 123I-labelled) [Imaging Agent 35]” belongs “bind with high affinity to collagen in vitro”.
Consider {99mTc‑Chelate II}-ANAALKAGELYKCILY-NH2 (also: 99mTc complex) [Imaging Agent 1: [99mTc-Chelate II]-…-NH2], for which, in the experiment with collagen type I [2], the Bmax is 1070 attomoles and the Kd (as a rule, the free concentration of one partner at which half of the binding sites on the other are occupied at equilibrium, for simple one-to-one binding) amounted to 194 nM.
